The supplement of paper PMC7877785
± gives the uncertainty stated by the source.

Assay: self-splicing fitness, log relative to wild type (ln ratio); higher = more splicing; Tetrahymena group I intron in knt gene, E. coli kanamycin selection, DiMSum; sequences stand for … in CUCUCU…GGAGGGAAAAGUUAUCAGGCAUGCACCUGGUAGCUAGUCUUUAAACCAAUAGAUUGCAUCGGUUUAAAAGGCAAGACCGUCAAAUUGCGGGAAAGGGGUCAACAGCCGUUCAGUACCAAGUCUCAGGGGAAACUUUGAGAUGGCCUUGCAAAGGGUAUGGUAAUAAGCUGACGGACAUGGUCCUAACCACGCAGCCAAGUCCUAAGUCAACAGAUCUUCUGUUGAUAUGGAUGCAGUUCACAGACUAAAUGUCGGUCGGGGAAGAUGUAUUCUUCUCAUAAGAUAUAGUCGGACCUCUCCUUAAUGGGAGCUAGCGGAUGAAGUGAUGCAACACUGGAGCCGCUGGGAACUAAUUUGUAUGCGAAAGUAUAUUGAUUAGUUUUGGAGUACUCGUGGUCG
Procedure, shortened: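 A randomised library covering all eight P1ex-region intron nucleotides was built with the intron in the knt kanamycin-resistance gene on pET-22b(+) and held in E. coli BL21(DE3). Cells were grown overnight at 37°C or 30°C on LB agar, with or without 25 μg/mL kanamycin, plus 100 μg/mL carbenicillin, 50 μM IPTG and 0.2% rhamnose, and pooled colonies were amplicon-sequenced on an Illumina HiSeq 2500. DiMSum fitness is the error-weighted combination of wild-type-normalised replicate fold changes, kanamycin versus none.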

Row | Sequence | self-splicing fitness (ln) (30 °C) | self-splicing fitness (ln) (37 °C)
1 | AAGUAGCAAUAUUACGGCUU | -1.4 ± 0.12 | -0.634 ± 0.14
2 | AAGUAGCAAUAUUACGGUGG | -3.62 ± 0.22 | -2.85 ± 0.26
3 | AAGUAGCAAUAUUACGGUUC | -2.75 ± 0.19 | -2.08 ± 0.23
4 | AAGUAGCAAUAUUACGUCCA | -0.464 ± 0.18 | -0.521 ± 0.17
5 | AAGUAGCAAUAUUACGUCGC | -2.54 ± 0.25 | -1.8 ± 0.23
6 | AAGUAGCAAUAUUACGUGUA | -1.98 ± 0.13 | -1.41 ± 0.14
7 | AAGUAGCAAUAUUACGUGUU | -2.27 ± 0.093 | -1.2 ± 0.095
8 | AAGUAGCAAUAUUACGUUUA | -1.63 ± 0.13 | -0.835 ± 0.11
9 | AAUAAGCAAUAUUACGAAAA | -2.98 ± 0.28 | -1.76 ± 0.2
10 | AAUAAGCAAUAUUACGAAAU | -2.34 ± 0.14 | -1.4 ± 0.15
11 | AAUAAGCAAUAUUACGAAUU | -1.93 ± 0.1 | -1.58 ± 0.12
12 | AAUAAGCAAUAUUACGACAG | -1.64 ± 0.13 | -0.432 ± 0.14
13 | AAUAAGCAAUAUUACGACCC | -0.924 ± 0.12 | 0.479 ± 0.17
14 | AAUAAGCAAUAUUACGACUC | 0.0667 ± 0.14 | 0.341 ± 0.2
15 | AAUAAGCAAUAUUACGAGAU | -3.82 ± 0.2 | -2.24 ± 0.21
16 | AAUAAGCAAUAUUACGCACU | 0.285 ± 0.075 | -0.118 ± 0.082
17 | AAUAAGCAAUAUUACGCCGG | -1.87 ± 0.13 | -1.07 ± 0.18
18 | AAUAAGCAAUAUUACGCGCA | -0.438 ± 0.081 | -0.0417 ± 0.11
19 | AAUAAGCAAUAUUACGCGGC | -2.74 ± 0.24 | -2.03 ± 0.33
20 | AAUAAGCAAUAUUACGCUUC | -3.51 ± 0.23 | -2.59 ± 0.23
21 | AAUAAGCAAUAUUACGGCCC | -0.731 ± 0.17 | 0.533 ± 0.27
22 | AAUAAGCAAUAUUACGGCGU | 0.428 ± 0.082 | 0.242 ± 0.1
23 | AAUAAGCAAUAUUACGGCUG | -0.2 ± 0.085 | 0.42 ± 0.1
24 | AAUAAGCAAUAUUACGGGAC | -3.76 ± 0.3 | -2.17 ± 0.21
25 | AAUAAGCAAUAUUACGGGUG | -1.59 ± 0.12 | -1.04 ± 0.11
26 | AAUAAGCAAUAUUACGUAAC |  | -1.85 ± 0.25

Row | Sequence | self-splicing fitness (ln) (30 °C) | self-splicing fitness (ln) (37 °C)
27 | AAUAAGCAAUAUUACGUAUC | -1.6 ± 0.087 | -1.36 ± 0.11
28 | AAUAAGCAAUAUUACGUCCU | -0.0473 ± 0.076 | 0.0333 ± 0.088
29 | AAUAAGCAAUAUUACGUCGU | -0.729 ± 0.079 | -0.613 ± 0.093
30 | AAUAAGCAAUAUUACGUCUC | -1.68 ± 0.11 | -0.799 ± 0.13
31 | AAUAAGCAAUAUUACGUUAU | -2.45 ± 0.13 | -1.58 ± 0.16
32 | AAUCAGCAAUAUUACGAAUU | -0.152 ± 0.1 | 0.193 ± 0.13
33 | AAUCAGCAAUAUUACGACGG | -1.73 ± 0.097 | -0.991 ± 0.13
34 | AAUCAGCAAUAUUACGACGU | 0.0618 ± 0.056 | 0.666 ± 0.07
35 | AAUCAGCAAUAUUACGACUG | -0.833 ± 0.097 | 0.27 ± 0.11
36 | AAUCAGCAAUAUUACGACUU | 0.234 ± 0.068 | 0.142 ± 0.083
37 | AAUCAGCAAUAUUACGAGGC | -3.28 ± 0.25 | -2.47 ± 0.23
38 | AAUCAGCAAUAUUACGAUAA | -0.0103 ± 0.084 | -0.0641 ± 0.1
39 | AAUCAGCAAUAUUACGAUUG | -1.54 ± 0.064 | -0.631 ± 0.085
40 | AAUCAGCAAUAUUACGCACC | -0.409 ± 0.17 | 0.0564 ± 0.22
41 | AAUCAGCAAUAUUACGCAGG | -1.51 ± 0.11 | 0.11 ± 0.097
42 | AAUCAGCAAUAUUACGCAGU | -0.402 ± 0.066 | -0.257 ± 0.078
43 | AAUCAGCAAUAUUACGCAUU | -1.1 ± 0.072 | -0.498 ± 0.086
44 | AAUCAGCAAUAUUACGCCCU | 0.314 ± 0.099 | 0.0253 ± 0.12
45 | AAUCAGCAAUAUUACGGAAG | -1.75 ± 0.11 | -0.948 ± 0.12
46 | AAUCAGCAAUAUUACGGAUC | -0.358 ± 0.073 | 0.17 ± 0.1
47 | AAUCAGCAAUAUUACGGCCC | -0.563 ± 0.18 | 0.491 ± 0.2
48 | AAUCAGCAAUAUUACGGCCU | 0.091 ± 0.13 | 0.245 ± 0.15
49 | AAUCAGCAAUAUUACGGGAC | -3.57 ± 0.18 | -1.4 ± 0.096
50 | AAUCAGCAAUAUUACGGGCC | -3.19 ± 0.44 | -2.58 ± 0.28
51 | AAUCAGCAAUAUUACGGGCU | -2.04 ± 0.081 | -1.22 ± 0.094
52 | AAUCAGCAAUAUUACGGGGC | -3.92 ± 0.33 | -2.58 ± 0.29

Row | Sequence | self-splicing fitness (ln) (30 °C) | self-splicing fitness (ln) (37 °C)
53 | AAUCAGCAAUAUUACGGUAC | -0.714 ± 0.082 | -0.852 ± 0.1
54 | AAUCAGCAAUAUUACGUACC | -0.557 ± 0.16 | -0.29 ± 0.18
55 | AAUCAGCAAUAUUACGUGAG | -0.184 ± 0.047 | 0.612 ± 0.077
56 | AAUCAGCAAUAUUACGUGGU | -1.65 ± 0.088 | -0.981 ± 0.11
57 | AAUCAGCAAUAUUACGUUGG | -2.06 ± 0.1 | -1 ± 0.1
58 | AAUGAGCAAUAUUACGAACA | -1.5 ± 0.45 | -1.2 ± 0.48
59 | AAUGAGCAAUAUUACGACAA | -3.01 ± 0.27 | -1.93 ± 0.25
60 | AAUGAGCAAUAUUACGAUUA | -2.57 ± 0.11 | -1.37 ± 0.1
61 | AAUGAGCAAUAUUACGAUUC | -3.1 ± 0.26 | -2.43 ± 0.26
62 | AAUGAGCAAUAUUACGCAGA | -2.8 ± 0.27 | -1.56 ± 0.25
63 | AAUGAGCAAUAUUACGCCUG | -3.5 ± 0.2 | -2.85 ± 0.26
64 | AAUGAGCAAUAUUACGCUGC |  | -1.24 ± 0.24
65 | AAUGAGCAAUAUUACGGCAA | -2.55 ± 0.34 | -1.85 ± 0.35
66 | AAUGAGCAAUAUUACGGGAU | -4.32 ± 0.28 | -3.09 ± 0.29
67 | AAUGAGCAAUAUUACGGGCC |  | -1.76 ± 0.39
68 | AAUGAGCAAUAUUACGGUAU |  | -1.81 ± 0.19
69 | AAUGAGCAAUAUUACGGUGA | -3.31 ± 0.27 | -2.26 ± 0.42
70 | AAUGAGCAAUAUUACGGUUG | -2.99 ± 0.13 | -2.81 ± 0.19
71 | AAUGAGCAAUAUUACGUAAG | -2.38 ± 0.22 | -2.2 ± 0.23
72 | AAUGAGCAAUAUUACGUACU | -0.657 ± 0.12 | -0.978 ± 0.16
73 | AAUGAGCAAUAUUACGUCUA | -2.27 ± 0.24 | -1.59 ± 0.18
74 | AAUGAGCAAUAUUACGUCUU | 0.00922 ± 0.083 | -0.0903 ± 0.096
75 | AAUGAGCAAUAUUACGUGUU | -4.51 ± 0.23 | -2.85 ± 0.22
76 | AAUGAGCAAUAUUACGUUAA | -2.76 ± 0.18 | -1.72 ± 0.17
